These results are taken from US20190300625A1 (Regeneron, published 2019).

In assay [1] the target is T1, hTMPRSS2 knob_mmh (W106-R255).mmh (human).
T1 construct: also called hTMPRSS2.mmh; HMM-hTMPRSS2
As to the kind of experiment: SPR (Biacore 4000), mAb captured by anti-mouse Fc, HMM-hTMPRSS2 as analyte, 25 C. (Surface plasmon resonance follows binding to a sensor surface in real time, without labels.)

For assay [2], the target named is T1, hTMPRSS2 knob_mmh (W106-R255).mmh. As to the kind of experiment: SPR (Biacore 4000), mAb captured by anti-mouse Fc, HMM-hTMPRSS2 as analyte, 37 C.
Assay [3] concerns the target T2, mfTMPRSS2 knob_mmh (W106-R255).mmh (monkey).
T2 construct: also called mfTMPRSS2.mmh; HMM-mfTMPRSS2
Put plainly: SPR (Biacore 4000), mAb captured by anti-mouse Fc, HMM-mfTMPRSS2 as analyte, 25 C.

Assay [4] concerns the target T2, mfTMPRSS2 knob_mmh (W106-R255).mmh. As to the kind of experiment: SPR (Biacore 4000), mAb captured by anti-mouse Fc, HMM-mfTMPRSS2 as analyte, 37 C.

T2 sequence (chain, as listed by the source limits assumed): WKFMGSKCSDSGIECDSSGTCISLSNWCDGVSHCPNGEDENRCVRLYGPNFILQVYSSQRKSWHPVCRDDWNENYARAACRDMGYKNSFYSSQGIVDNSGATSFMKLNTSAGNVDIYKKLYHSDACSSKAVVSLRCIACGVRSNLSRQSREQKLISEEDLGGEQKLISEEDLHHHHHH
T1 sequence (chain, as listed by the source limits assumed): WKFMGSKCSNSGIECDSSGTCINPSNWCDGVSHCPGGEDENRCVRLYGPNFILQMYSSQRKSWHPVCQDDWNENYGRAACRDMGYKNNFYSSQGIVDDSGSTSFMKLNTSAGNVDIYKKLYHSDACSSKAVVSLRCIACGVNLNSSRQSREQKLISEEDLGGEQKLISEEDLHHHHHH

B1: H2aM7017N (antibody, V domains shown)
VH: QVQLVESGGGVVQPGRSLRLSCAASGFTFSSYGMHWVRQSPGKGLEWVAVIWNDGSYVYYADSVKGRFTISRDISKNTLFLQMNSLRAEDTAVYYCAREGEWVLYYFDYWGQGTLVTVSS
VL: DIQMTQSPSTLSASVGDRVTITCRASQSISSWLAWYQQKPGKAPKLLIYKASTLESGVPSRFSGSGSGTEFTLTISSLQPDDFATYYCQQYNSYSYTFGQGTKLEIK
notes: also called anti-TMPRSS2 monoclonal antibody (Biacore)
With B1, the Kd (in general, the equilibrium constant for the complex coming apart) in assay [1] stood at 0.00281 µM; in assay [2] it was 0.00931 µM; in assay [3], 0.056 µM; in assay [4], 0.14 µM. Further, the koff (usually the first-order rate constant of dissociation) turned out to be 0.000745 s⁻¹ in assay [1], 0.00323 s⁻¹ in assay [2], 0.0157 s⁻¹ in assay [3] and 0.0512 s⁻¹ in assay [4]. Also, the association rate constant (kon) (in general, the rate constant with which the complex forms) in assay [1] was determined as 265000 M⁻¹ s⁻¹; in assay [2], 347000 M⁻¹ s⁻¹; in assay [3] it was 280000 M⁻¹ s⁻¹; in assay [4], 366000 M⁻¹ s⁻¹. The t½ – broadly, how long it takes for the measured level to halve – in assay [1] is 15.5 min; in assay [2] it was 3.6 min; in assay [3], 0.7 min; in assay [4], 0.2 min.
